Biological target: the molecule itself
Test: SEC; renatured SpoVK-His6 on Superdex 200 Increase in renaturation buffer (500 mM L-arginine, 100 mM NaCl, pH 7.5), 0.75 ml/min; final peak

B1: SpoVK-His6 (enzyme, B. subtilis, UniProt P27643 1-322, looked up)
chain: MLERAVTYKNNGQINIILNGQKQVLTNAEAEAEYQAALQKNEAKHGILKEIEKEMSALVGMEEMKRNIKEIYAWIFVNQKRAEQGLKVGKQALHMMFKGNPGTGKTTVARLIGKLFFEMNVLSKGHLIEAERADLVGEYIGHTAQKTRDLIKKSLGGILFIDEAYSLARGGEKDFGKEAIDTLVKHMEDKQHEFILILAGYSREMDHFLSLNPGLQSRFPISIDFPDYSVTQLMEIAKRMIDEREYQLSQEAEWKLKDYLMTVKSTTSPIKFSNGRFVRNVIEKSIRAQAMRLLMGDQYLKSDLMTIKSQDLSIKEEASGSA
notes: SpoVK, AAA+ ATPase of Bacillus subtilis; also called purified SpoVK
  stoichiometry N: ~3

— doi:10.1101/2023.10.06.561273, “Bacterial cell surface nanoenvironment requires a specialized chaperone to activate a peptidoglycan biosynthetic enzyme” (bioRxiv, 2023)
